The values below come from patent US20130164281A1 (SAMSUNG ELECTRONICS, published 2013).

Numbering of substitutions follows the chain as printed.

Assay [1] addresses T1, human c-Met/Fc fusion protein (R&D Systems) (human, UniProt P08581 25-932).
T1 construct: Bought reagent; also called c-Met/Fc chimera (R&D Systems Cat. No. 358-MT/CF); not shown: Fc part of the bought fusion
As to the kind of experiment: competition ELISA on coated c-Met/Fc; competitor biotinylated chAbF46 (0.1 ug/ml). How it is done: The antigens were coated by overnight incubation at a temperature of 4° C. using Nunc Immuno MaxiSort 96 well flat bottom microtiter plate (Fisher Cat. No. DIS-971-030J) and 1.0 μg/ml and 100 μl/well of c-Met/Fc chimera (R&D Systems Cat. No. 358-MT/CF). chAbF46 and 20 humanized antibodies were diluted and at a concentration of 10 μg/ml to 0.078 μg/ml, they were mixed with biotinylated chAbF46 (0.1 μg/ml, final conc.), followed by incubation at a temperature of 37° C. for 2 hours. The amount of biotinylated chAbF46 antibody binding to the antigen was measured using streptavidin-HRP (Sigma cat. No S5512) and an OPD substrate (Sigma Cat. No. P9187), and IC50 data were calculated from the results and the data are shown in Table 1 below (all units in nM).
On the technique in general: In an ELISA, binding on a coated surface is turned into a signal by an enzyme label.

Assay [2] deals with T2, human c-Met protein antigen (human, UniProt P08581 25-932, limits assumed).
T2 construct: also called c-Met antigen
The assay is described as follows: Biacore SPR, antibody immobilized on CM5 chip, human c-Met protein injected. On the technique in general: Surface plasmon resonance follows binding to a sensor surface in real time, without labels.

T1 sequence (P08581 25-932 limits assumed): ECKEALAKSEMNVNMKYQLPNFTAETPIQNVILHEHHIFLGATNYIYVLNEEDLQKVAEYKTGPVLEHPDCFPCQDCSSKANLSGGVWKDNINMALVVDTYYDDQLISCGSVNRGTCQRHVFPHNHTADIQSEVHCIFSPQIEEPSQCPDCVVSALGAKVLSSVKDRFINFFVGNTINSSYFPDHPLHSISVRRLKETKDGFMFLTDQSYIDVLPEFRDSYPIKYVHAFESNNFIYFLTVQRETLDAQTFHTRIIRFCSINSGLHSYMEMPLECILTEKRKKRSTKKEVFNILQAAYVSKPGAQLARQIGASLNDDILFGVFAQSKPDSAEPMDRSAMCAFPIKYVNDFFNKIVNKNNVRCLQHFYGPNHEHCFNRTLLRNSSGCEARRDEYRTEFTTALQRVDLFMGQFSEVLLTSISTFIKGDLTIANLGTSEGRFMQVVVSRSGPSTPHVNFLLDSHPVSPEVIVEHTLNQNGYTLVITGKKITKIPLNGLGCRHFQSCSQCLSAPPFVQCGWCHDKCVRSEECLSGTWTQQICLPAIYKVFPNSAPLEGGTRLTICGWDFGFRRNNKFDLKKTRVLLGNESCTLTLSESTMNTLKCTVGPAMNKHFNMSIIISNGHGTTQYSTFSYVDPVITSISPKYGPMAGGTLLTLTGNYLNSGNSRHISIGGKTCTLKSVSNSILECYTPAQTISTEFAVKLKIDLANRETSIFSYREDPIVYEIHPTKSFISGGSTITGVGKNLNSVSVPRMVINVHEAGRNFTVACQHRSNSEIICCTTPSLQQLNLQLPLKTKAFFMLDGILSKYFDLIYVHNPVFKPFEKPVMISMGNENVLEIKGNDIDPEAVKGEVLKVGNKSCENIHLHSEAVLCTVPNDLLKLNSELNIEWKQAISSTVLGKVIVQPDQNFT
T2 sequence (P08581 25-932 limits assumed): as above

B1: deimmunized humanized antibody huAbF46 including a combination of AT-VH3 and AT-Vk2 (antibody, IgG1, V domains shown)
VH: EVQLVESGGGLVQPGGSLRLSCATSGFTFTDYYMSWVRQPPGKGLEWLGFIRNKANGYTTEYSASVKGRFTISRDNSKSTLYLQMNSLRAEDTATYYCARDNWFAYWGQGTLVTVSS
VL: DILMTQSPSSLSASVGDRVTITCKSSQSLLASGNQNNYLAWHQQKPGKAPKMLIIWASTRVSGVPDRFIGSGSGTDFTLTISSLQAEDVAVYYCQQSYSAPLTFGQGTKLEIK
notes: expressed from pANTVhG1 and pANTVk vectors (IgG1, kappa) in HEK293 cells; also called AT-VH3/AT-Vk2
B1: the concentration for half-maximal inhibition (IC50) in assay [1] turned out to be 4.5 nM. This counts as single-digit nanomolar.

B2: chimeric antibody chAbF46 (antibody, V domains shown)
VH: B1 VH with Q3K, G44A, K78Q, T80I, N86D, S87T, T93S, S117A
VL: DILMTQSPSSLTVSAGEKVTMSCKSSQSLLASGNQNNYLAWHQQKPGRSPKMLIIWASTRVSGVPDRFIGSGSGTDFTLTINSVQAEDLAVYYCQQSYSAPLTFGAGTKLELKR
Molecule B2 came in with a dissociation constant (Kd) in assay [2] of 4.27 nM.

B3: deimmunized humanized antibody huAbF46 including a combination of AT-VH2 and AT-Vk2 (antibody, IgG1, V domains shown)
VH: B1 VH with Q3K
VL: B1 VL
notes: expressed from pANTVhG1 and pANTVk vectors (IgG1, kappa) in HEK293 cells; also called AT-VH2/AT-Vk2
On to B3, for which the 50% inhibitory concentration (IC50) in assay [1] was determined as 1.28 nM. That is a single-digit nanomolar value.

B4: deimmunized humanized antibody huAbF46 including a combination of AT-VH3 and AT-Vk4 (antibody, IgG1, V domains shown)
VH: B1 VH
VL: B1 VL with L3Q, I69S
notes: expressed from pANTVhG1 and pANTVk vectors (IgG1, kappa) in HEK293 cells; also called AT-VH3/AT-Vk4
Molecule B4 came in with an IC50 in assay [1] of 1.81 nM.

B5: deimmunized humanized antibody huAbF46 including a combination of AT-VH1 and AT-Vk3 (antibody, IgG1, V domains shown)
VH: B1 VH with Q3K, T93S
VL: B1 VL with L3Q
notes: expressed from pANTVhG1 and pANTVk vectors (IgG1, kappa) in HEK293 cells; also called AT-VH1/AT-Vk3
With B5, the IC50 in assay [1] was 2.3 nM. This IC50 and that of the molecule before are within 1.5-fold of each other.

B6: deimmunized humanized antibody huAbF46 including a combination of AT-VH5 and AT-Vk3 (antibody, IgG1, V domains shown)
VH: B1 VH with S79N, T95V
VL: B1 VL with L3Q
notes: expressed from pANTVhG1 and pANTVk vectors (IgG1, kappa) in HEK293 cells; also called AT-VH5/AT-Vk3
B6 returned an IC50 in assay [1] of 1.57 nM.

B7: deimmunized humanized antibody huAbF46 including a combination of AT-VH4 and AT-Vk4 (antibody, IgG1, V domains shown)
VH: B1 VH with S79N
VL: B1 VL with L3Q, I69S
notes: expressed from pANTVhG1 and pANTVk vectors (IgG1, kappa) in HEK293 cells; also called AT-VH4/AT-Vk4
Molecule B7 showed an IC50 in assay [1] of 1.41 nM.

B8: deimmunized humanized antibody huAbF46 including a combination of AT-VH4 and AT-Vk2 (antibody, IgG1, V domains shown)
VH: B1 VH with S79N
VL: B1 VL
notes: expressed from pANTVhG1 and pANTVk vectors (IgG1, kappa) in HEK293 cells; also called AT-VH4/AT-Vk2
B8: the 50% inhibitory concentration (IC50) in assay [1] worked out at 3.13 nM. This IC50 is about 2.2-fold higher than that of the molecule before.

B9: deimmunized humanized antibody huAbF46 including a combination of AT-VH3 and AT-Vk1 (antibody, IgG1, V domains shown)
VH: B1 VH
VL: B1 VL with S12T, I21M
notes: expressed from pANTVhG1 and pANTVk vectors (IgG1, kappa) in HEK293 cells; also called AT-VH3/AT-Vk1
As to B9, the IC50 in assay [1] came to 3.53 nM.

B10: deimmunized humanized antibody huAbF46 including a combination of AT-VH2 and AT-Vk3 (antibody, IgG1, V domains shown)
VH: B1 VH with Q3K
VL: B1 VL with L3Q
notes: expressed from pANTVhG1 and pANTVk vectors (IgG1, kappa) in HEK293 cells; also called AT-VH2/AT-Vk3
B10 yielded a half-maximal inhibitory concentration (IC50) in assay [1] of 1.69 nM. Compared with the last molecule, the IC50 is about 2.1-fold lower.

B11: deimmunized humanized antibody huAbF46 including a combination of AT-VH4 and AT-Vk1 (antibody, IgG1, V domains shown)
VH: B1 VH with S79N
VL: B1 VL with S12T, I21M
notes: expressed from pANTVhG1 and pANTVk vectors (IgG1, kappa) in HEK293 cells; also called AT-VH4/AT-Vk1
On to B11, for which, in assay [1], the IC50 was determined as 2.4 nM.

B12: deimmunized humanized antibody huAbF46 including a combination of AT-VH2 and AT-Vk4 (antibody, IgG1, V domains shown)
VH: B1 VH with Q3K
VL: B1 VL with L3Q, I69S
notes: expressed from pANTVhG1 and pANTVk vectors (IgG1, kappa) in HEK293 cells; also called AT-VH2/AT-Vk4
Turning to B12, in assay [1], the IC50 was 1.37 nM.

B13: deimmunized humanized antibody huAbF46 including a combination of AT-VH2 and AT-Vk1 (antibody, IgG1, V domains shown)
VH: B1 VH with Q3K
VL: B1 VL with S12T, I21M
notes: expressed from pANTVhG1 and pANTVk vectors (IgG1, kappa) in HEK293 cells; also called AT-VH2/AT-Vk1
For the molecule B13, in assay [1], the IC50 was determined as 2.3 nM.

B14: deimmunized humanized antibody huAbF46 including a combination of AT-VH3 and AT-Vk3 (antibody, IgG1, V domains shown)
VH: B1 VH
VL: B1 VL with L3Q
notes: expressed from pANTVhG1 and pANTVk vectors (IgG1, kappa) in HEK293 cells; also called AT-VH3/AT-Vk3
B14: the IC50 in assay [1] came to 5.51 nM.

B15: deimmunized humanized antibody huAbF46 including a combination of AT-VH1 and AT-Vk4 (antibody, IgG1, V domains shown)
VH: B1 VH with Q3K, T93S
VL: B1 VL with L3Q, I69S
notes: expressed from pANTVhG1 and pANTVk vectors (IgG1, kappa) in HEK293 cells; also called AT-VH1/AT-Vk4
B15: the IC50 in assay [1] worked out at 1.51 nM.

B16: deimmunized humanized antibody huAbF46 including a combination of AT-VH5 and AT-Vk2 (antibody, IgG1, V domains shown)
VH: B1 VH with S79N, T95V
VL: B1 VL
notes: expressed from pANTVhG1 and pANTVk vectors (IgG1, kappa) in HEK293 cells; also called AT-VH5/AT-Vk2
The molecule B16 showed an IC50 in assay [1] of 1.46 nM.

B17: deimmunized humanized antibody huAbF46 including a combination of AT-VH5 and AT-Vk4 (antibody, IgG1, V domains shown)
VH: B1 VH with S79N, T95V
VL: B1 VL with L3Q, I69S
notes: expressed from pANTVhG1 and pANTVk vectors (IgG1, kappa) in HEK293 cells; also called AT-VH5/AT-Vk4
On to B17, for which, in assay [1], the concentration for half-maximal inhibition (IC50) turned out to be 1.62 nM.

B18: deimmunized humanized antibody huAbF46 including a combination of AT-VH1 and AT-Vk2 (antibody, IgG1, V domains shown)
VH: B1 VH with Q3K, T93S
VL: B1 VL
notes: expressed from pANTVhG1 and pANTVk vectors (IgG1, kappa) in HEK293 cells; also called AT-VH1/AT-Vk2
With B18, in assay [1], the IC50 came to 1.49 nM.

B19: deimmunized humanized antibody huAbF46 including a combination of AT-VH1 and AT-Vk1 (antibody, IgG1, V domains shown)
VH: B1 VH with Q3K, T93S
VL: B1 VL with S12T, I21M
notes: expressed from pANTVhG1 and pANTVk vectors (IgG1, kappa) in HEK293 cells; also called AT-VH1/AT-Vk1
B19 gave an IC50 in assay [1] of 1.48 nM.

B20: deimmunized humanized antibody huAbF46 including a combination of AT-VH4 and AT-Vk3 (antibody, IgG1, V domains shown)
VH: B1 VH with S79N
VL: B1 VL with L3Q
notes: expressed from pANTVhG1 and pANTVk vectors (IgG1, kappa) in HEK293 cells; also called AT-VH4/AT-Vk3
Regarding B20, in assay [1], the concentration for half-maximal inhibition (IC50) was 1.99 nM.

B21: deimmunized humanized antibody huAbF46 including a combination of AT-VH5 and AT-Vk1 (antibody, IgG1, V domains shown)
VH: B1 VH with S79N, T95V
VL: B1 VL with S12T, I21M
notes: expressed from pANTVhG1 and pANTVk vectors (IgG1, kappa) in HEK293 cells; also called AT-VH5/AT-Vk1
As to B21, the IC50 in assay [1] came out at 2.04 nM.

Usually IC50 stands for the concentration that inhibits the measured activity by half. The term Kd denotes a measure of binding affinity in units of concentration. Lower therefore signals tighter binding.
